Data reported in PMC10079538, “Unusual PDGFRB fusion reveals novel mechanism of kinase activation in Ph-like B-ALL” (Leukemia, 2023).

Molecular target: the molecule itself
Test: SEC; elution of the recombinant protein purified from insect cells; molecular weight from the elution

B1: recombinant truncated PDGFRB (PDGFRB^584-1106) (domain or fragment, human, UniProt P09619 584-1106, looked up)
chain: PMQLPYDSTWELPRDQLVLGRTLGSGAFGQVVEATAHGLSHSQATMKVAVKMLKSTARSSEKQALMSELKIMSHLGPHLNVVNLLGACTKGGPIYIITEYCRYGDLVDYLHRNKHTFLQHHSDKRRPPSAELYSNALPVGLPLPSHVSLTGESDGGYMDMSKDESVDYVPMLDMKGDVKYADIESSNYMAPYDNYVPSAPERTCRATLINESPVLSYMDLVGFSYQVANGMEFLASKNCVHRDLAARNVLICEGKLVKICDFGLARDIMRDSNYISKGSTFLPLKWMAPESIFNSLYTTLSDVWSFGILLWEIFTLGGTPYPELPMNEQFYNAIKRGYRMAQPAHASDEIYEIMQKCWEEKFEIRPPFSQLVLLLERLLGEGYKKKYQQVDEEFLRSDHPAILRSQARLPGFHGLRSPLDTSSVLYTAVQPNEGDNDYIIPLPDPKPEVADEGPLEGSPSLASSTLNEVNTSSTISCDSPLEPQDEPEPEPQLELQVEPEPELEQLPDSGCPAPRAEAEDSFL
notes: PDGFRB, human, residues 584-1106; truncated form encoded by the CD74^intr::PDGFRB fusion, lacks the juxtamembrane region; methods are in the supplementary file; also called truncated PDGFRB^584-1106; source: insect cells, expressed and purified
  stoichiometry N: 2
